Assay results as given in patent US20050181450A1, “Novel inositol 1,4,5-trisphosphate (IP3) receptor-binding protein and an IP3 indicator” (priority 2002, published 2005).

What was measured:
[1] = biological target: T1, type II phosphatidylinositol phosphate kinase β (Homo sapiens, UniProt P78356); assay: Co-immunoprecipitation in Cos-7 cells with Myc-PIPKII β; format: binding; details: overexpressing Cos-7 cells
T1 construct: expressed in transfected cells; host or cells: Cos-7
T1 sequence (P78356 1-416): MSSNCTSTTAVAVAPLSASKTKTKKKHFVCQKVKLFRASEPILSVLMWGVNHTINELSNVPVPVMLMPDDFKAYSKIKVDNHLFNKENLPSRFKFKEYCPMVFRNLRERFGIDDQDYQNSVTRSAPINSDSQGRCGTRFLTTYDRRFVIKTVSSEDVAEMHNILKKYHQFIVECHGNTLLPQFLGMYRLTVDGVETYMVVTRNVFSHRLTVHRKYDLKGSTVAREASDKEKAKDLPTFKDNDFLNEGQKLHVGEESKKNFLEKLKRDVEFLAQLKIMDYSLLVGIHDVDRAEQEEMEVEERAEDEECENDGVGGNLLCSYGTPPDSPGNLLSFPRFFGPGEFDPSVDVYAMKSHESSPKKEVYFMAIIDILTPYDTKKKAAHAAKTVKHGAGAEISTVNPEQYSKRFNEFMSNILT
Method: (§1) (A and B) IRBIT was transfected into Cos-7 cells with Myc-tagged type II phosphatidylinositol phosphate kinase α, β or γ (PIPKII α, β or γ). After two days, cells were lysed in lysis buffer, followed by centrifugation (100,000×g, 30 min). The supernatants were incubated with 3 μg of anti-IRBIT antibody, rabbit IgG, mouse anti-Myc antibody, or mouse IgG for 1 h at 4° C. After adding 5 μl of Protein G beads and another 1-h incubation, the beads were washed five times with lysis buffer and analyzed by Western blotting with anti-IRBIT antibody or HRP conjugated anti-Myc antibody. Immunoprecipitation of Myc-PIPKII α, β or γ with anti-Myc antibody co-precipitated IRBIT (A). In the reciprocal experiments, immunoprecipitation of IRBIT with anti-IRBIT antibody precipitated Myc-PIPKII α, β or γ.
as §1, with “IRBIT” for “(A and B) IRBIT”, “antibody.” for “antibody. Immunoprecipitation of Myc-PIPKII α, β or γ with anti-Myc antibody co-precipitated IRBIT (A). In the reciprocal experiments, immunoprecipitation of IRBIT with anti-IRBIT antibody precipitated Myc-PIPKII α, β or γ.”

[2] = biological target: T2, GST-Iab (mouse IP3R1 amino acids 1-343) (Mus musculus, UniProt P11881); assay: GST pulldown with GST-Iab; format: binding; details: IRBIT in high salt extract
T2 construct: made in house; host or cells: Escherichia coli
From the text: (§2) The cDNAs encoding the full-length and N-terminal region (amino acids 1-104) of IRBIT were subcloned into the Escherichia coli hexahistidine (His) fusion vector pET-23a(+) (Novagen) to generate IRBIT-His and IRBIT(1-104)-His expression vectors, respectively. The same cDNAs were subcloned into the GST fusion vector pGEX-4T-1 (Amersham Pharmacia Biotech) to generate GST-IRBIT and GST-IRBIT(1-104) expression vectors, respectively. The cDNA fragments encoding the amino acids 1-225, 1-343, 341-923, 600-1248, 916-1581 and 1553-1943 of the amino acid sequence (SEQ ID NO: 7) of mouse IP3R1 were inserted into pGEX-KG to generate GST-Ia, GST-Iab, GST-IIab, GST-IIbIIIa, GST-IIIab and GST-IV expression vectors, respectively. The amino acids 1593-2217 of mouse IP3R1 were inserted into pGEX-4T-1 to obtain GST-IV-Va expression vector. These fusion proteins were expressed in Escherichia coli. GST-EL was expressed in Sf9 cells as described above. […]
(§3) For the determination of the IRBIT binding region and the critical amino acid residue of IP3R1, the diluted high salt extract was subjected to pulldown assay as described above with 100 pmol of GST, GST-EL, GST-Ia, GST-Iab, GST-IbIIa, GST-IIab, GST-IIbIIIa, GST-IIIab, GST-IV, GST-IV-Va, K508A or R441Q, and analyzed by Western blotting with anti-IRBIT antibody.

[3] = biological target: T3, type II phosphatidylinositol phosphate kinase γ (Homo sapiens, UniProt Q8TBX8); assay: Co-immunoprecipitation in Cos-7 cells with Myc-PIPKII γ; format: binding; details: overexpressing Cos-7 cells
T3 construct: expressed in transfected cells; host or cells: Cos-7
T3 sequence (Q8TBX8 1-421): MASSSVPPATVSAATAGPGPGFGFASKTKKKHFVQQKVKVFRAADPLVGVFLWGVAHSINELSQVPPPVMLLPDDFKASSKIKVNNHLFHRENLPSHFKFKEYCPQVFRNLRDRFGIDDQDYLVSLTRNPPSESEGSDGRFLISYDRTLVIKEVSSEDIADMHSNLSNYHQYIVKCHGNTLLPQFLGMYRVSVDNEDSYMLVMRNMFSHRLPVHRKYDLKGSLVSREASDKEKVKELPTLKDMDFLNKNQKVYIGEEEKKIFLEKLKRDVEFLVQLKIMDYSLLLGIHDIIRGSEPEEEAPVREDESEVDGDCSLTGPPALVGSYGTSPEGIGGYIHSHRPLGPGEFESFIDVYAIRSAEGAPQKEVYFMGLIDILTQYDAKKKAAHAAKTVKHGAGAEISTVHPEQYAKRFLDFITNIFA
Method: as §1
as §1, with “IRBIT” for “(A and B) IRBIT”, “antibody.” for “antibody. Immunoprecipitation of Myc-PIPKII α, β or γ with anti-Myc antibody co-precipitated IRBIT (A). In the reciprocal experiments, immunoprecipitation of IRBIT with anti-IRBIT antibody precipitated Myc-PIPKII α, β or γ.”

[4] = biological target: T4, K508A mutant of GST-IbIIa (Mus musculus, UniProt P11881, K508A); assay: GST pulldown with K508A; format: binding; details: IRBIT in high salt extract
T4 construct: GST-IbIIa (amino acids 224-604 of mouse IP3R1) and its site-directed mutants K508A and R441Q; made in house
From the text: as §2, §3

[5] = S-adenosylhomocysteine hydrolase activity in the hydrolytic direction; format: biochemical; details: recombinant protein expressed in Escherichia coli; hydrolysis direction
Method: The S-adenosylhomocysteine hydrolase activity in the hydrolytic direction of recombinant IRBIT-His (open circle), GST-IRBIT (triangle), GST (square), and S-adenosylhomocysteine hydrolase (closed circle) were measured according to the known method (43). Results are shown as the mean±standard deviation from three independent experimental results.
To assay S-adenosylhomocysteine hydrolase activity in the hydrolytic direction, the color developed by the reaction between the product (Homocysteine) and 5,5′-dithiobis (2-nitrobenzoic acid) (Sigma) was measured spectroscopically using the purified IRBIT-His (3.0 μg), GST-IRBIT (4.3 μg), GST (1.3 μg) and rabbit S-adenosylhomocysteine hydrolase (Sigma) (2.4 μg), according to the known method (43). Absorbance at 412 nm was measured 0, 5, 20 and 60 minutes later using a DU 640 spectrophotometer (Beckman). Results are shown as the mean±standard deviation from three independent experiments (FIG. 2).

T2 sequence (P11881 1-343): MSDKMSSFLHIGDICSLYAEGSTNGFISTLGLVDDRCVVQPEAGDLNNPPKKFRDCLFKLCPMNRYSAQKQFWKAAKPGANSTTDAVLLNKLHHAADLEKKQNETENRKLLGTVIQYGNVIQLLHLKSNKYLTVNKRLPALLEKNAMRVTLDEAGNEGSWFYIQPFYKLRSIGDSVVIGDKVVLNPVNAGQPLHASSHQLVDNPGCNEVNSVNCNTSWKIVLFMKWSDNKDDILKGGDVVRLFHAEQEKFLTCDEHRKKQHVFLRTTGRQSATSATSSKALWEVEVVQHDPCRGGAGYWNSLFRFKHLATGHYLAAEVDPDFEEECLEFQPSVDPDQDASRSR
T4 sequence (P11881 224-604 K508A): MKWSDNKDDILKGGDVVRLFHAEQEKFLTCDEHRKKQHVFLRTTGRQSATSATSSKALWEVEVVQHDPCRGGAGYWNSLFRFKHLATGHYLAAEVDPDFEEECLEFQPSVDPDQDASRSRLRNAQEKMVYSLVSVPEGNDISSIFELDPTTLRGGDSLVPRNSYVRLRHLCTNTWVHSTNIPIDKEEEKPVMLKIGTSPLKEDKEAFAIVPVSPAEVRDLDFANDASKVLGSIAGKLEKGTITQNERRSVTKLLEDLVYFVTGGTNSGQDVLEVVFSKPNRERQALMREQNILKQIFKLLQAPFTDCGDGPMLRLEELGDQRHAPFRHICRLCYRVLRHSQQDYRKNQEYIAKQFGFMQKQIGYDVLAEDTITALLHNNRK

B1: IRBIT: novel IP3 receptor-binding protein of 530 amino acids, SEQ ID NO: 1 (protein, listed as Mus musculus)
chain: MSMPDAMPLPGVGEELKQAKEIEDAEKYSFMATVTKAPKKQIQFADDMQEFTKFPTKTGRRSLSRSISQSSTDSYSSAASYTDSSDDEVSPREKQQTNSKGSSNFCVKNIKQAEFGRREIEIAEQDMSALISLRKRAQGEKPLAGAKIVGCTHITAQTAVLIETLCALGAQCRWSACNIYSTQNEVAAALAEAGVAVFAWKGESEDDFWWCIDRCVNMDGWQANMILDDGGDLTHWVYKKYPNVFKKIRGIVEESVTGVHRLYQLSKAGKLCVPAMNVNDSVTKQKFDNLYCCRESILDGLKRTTDVMFGGKQVVVCGYGEVGKGCCAALKALGAIVYITEIDPICALQACMDGFRVVKLNEVIRQVDVVITCTGNKNVVTREHLDRMKNSCIVCNMGHSNTEIDVTSLRTPELTWERVRSQVDHVIWPDGKRVVLLAEGRLLNLSCSTVPTFVLSITATTQALALIELYNAPEGRYKQDVYLLPKKMDEYVASLHLPSFDAHLTELTDDQAKYLGLNKNGPFKPNYYRY
[1]
  interaction with PIPKII β: interacted
[2]
  interaction with GST-Iab: did not interact
[3]
  interaction with PIPKII γ: interacted
[4]
  binding to K508A: did not bind
[5]
  S-adenosylhomocysteine hydrolase activity: no S-adenosylhomocysteine hydrolase activity
